Laboratory results: IntAct's records for PubMed 17785451

B1: CBL-interacting serine/threonine-protein kinase 24 (Arabidopsis thaliana (Mouse-ear cress)), Q9LDI3 (parent)
chain: MTKKMRRVGKYEVGRTIGEGTFAKVKFARNTDTGDNVAIKIMAKSTILKNRMVDQIKREISIMKIVRHPNIVRLYEVLASPSKIYIVLEFVTGGELFDRIVHKGRLEESESRKYFQQLVDAVAHCHCKGVYHRDLKPENLLLDTNGNLKVSDFGLSALPQEGVELLRTTCGTPNYVAPEVLSGQGYDGSAADIWSCGVILFVILAGYLPFSETDLPGLYRKINAAEFSCPPWFSAEVKFLIHRILDPNPKTRIQIQGIKKDPWFRLNYVPIRAREEEEVNLDDIRAVFDGIEGSYVAENVERNDEGPLMMNAFEMITLSQGLNLSALFDRRQDFVKRQTRFVSRREPSEIIANIEAVANSMGFKSHTRNFKTRLEGLSSIKAGQLAVVIEIYEVAPSLFMVDVRKAAGETLEYHKFYKKLCSKLENIIWRATEGIPKSEILRTITF
partner: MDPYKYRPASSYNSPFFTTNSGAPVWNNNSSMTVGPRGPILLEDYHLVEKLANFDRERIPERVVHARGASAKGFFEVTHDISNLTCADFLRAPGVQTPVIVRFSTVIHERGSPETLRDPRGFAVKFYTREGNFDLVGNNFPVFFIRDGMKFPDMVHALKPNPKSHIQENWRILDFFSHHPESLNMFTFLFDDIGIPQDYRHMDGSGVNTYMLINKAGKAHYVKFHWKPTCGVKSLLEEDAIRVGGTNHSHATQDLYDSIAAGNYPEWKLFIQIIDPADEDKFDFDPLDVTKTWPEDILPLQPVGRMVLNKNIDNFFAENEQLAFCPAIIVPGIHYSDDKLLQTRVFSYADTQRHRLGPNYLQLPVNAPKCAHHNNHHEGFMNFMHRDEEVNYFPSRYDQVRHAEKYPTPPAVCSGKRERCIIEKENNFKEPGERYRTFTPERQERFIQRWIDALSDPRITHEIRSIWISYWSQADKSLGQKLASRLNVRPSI

Variants of: B1
Details: with cata2_arath CAT2, P25819

**Q.** For MTKKMRRVGKYEVGRTIGEGTFAKVKFARNTDTGDNVAINIMAKSTILKNRMVDQIKREISIMKIVRHPNIVRLYEVLASPSKIYIVLEFVTGGELFDRIVHKGRLEESESRKYFQQLVDAVAHCHCKGVYHRDLKPENLLLDTNGNLKVSDFGLSALPQEGVELLRTTCGTPNYVAPEVLSGQGYDGSAADIWSCGVILFVILAGYLPFSETDLPGLYRKINAAEFSCPPWFSAEVKFLIHRILDPNPKTRIQIQGIKKDPWFRLNYVPIRAREEEEVNLDDIRAVFDGIEGSYVAENVERNDEGPLMMNAFEMITLSQGLNLSALFDRRQDFVKRQTRFVSRREPSEIIANIEAVANSMGFKSHTRNFKTRLEGLSSIKAGQLAVVIEIYEVAPSLFMVDVRKAAGETLEYHKFYKKLCSKLENIIWRATEGIPKSEILRTITF [K40N], which “effect of a mutation on the interaction” value is on record?
**A.** increasing interaction
